B1: INTS3 (parent)
chain: KKREFRFHPIKETVVEEPVDITPY

Variants of: B1
Experiment: protein stability index of a GFP-peptide fusion (GPS, HEK-293T) (PSI 1-6); higher = more stable
Details: c terminus: a fixed tail appended
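Note: lentivirally expressed fusions sorted by FACS into six bins by GFP to DsRed ratio, PSI derived from sequencing read proportions per bin multiplied by bin number.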

Variant | protein stability index
KKGEFRFHPIKETVVEEPVDITPY [R3G] | 1.72
KKIEFRFHPIKETVVEEPVDITPY [R3I] | 2.25
KKFEFRFHPIKETVVEEPVDITPY [R3F] | 1.62
KKAEFRFHPIKETVVEEPVDITPY [R3A] | 1.82
KKREFRFHPIKETVVEEPRDITPY [V19R] | 2.37
KKREFRFHPIKETVVEEPEDITPY [V19E] | 2.28
KKREFRFHPIKETVVEEPDDITPY [V19D] | 2.13
KKREFRFHPIKETVVEEPGDITPY [V19G] | 1.98
KKREFRFHPIKETVVEEPFDITPY [V19F] | 1.77
KKREFRFHPIKETVAEEPVDITPY [V15A] | 2.01
KKREFRFHPIKETVIEEPVDITPY [V15I] | 1.67
KKREFRFHPIKETVHEEPVDITPY [V15H] | 1.82
KKREFRFHPIKETVNEEPVDITPY [V15N] | 1.75
KKREFRFHPIKETVLEEPVDITPY [V15L] | 1.73
KKREFRFHPIKETVVEEPVDITGY [P23G] | 3.45
KKREFRFHPIKETVVEEPVDITKY [P23K] | 1.99
KKREFRFHPIKETVVEEPVDITQY [P23Q] | 1.88
KKREFRFHPIKETVVEEPVDITIY [P23I] | 1.5
KKREFRFHPIKETVVEEPVDITTY [P23T] | 1.46
KKREFRFHPIKETVVEEPVDITRY [P23R] | 1.55
KKREFRFHPIKETRVEEPVDITPY [V14R] | 1.35
KKREFRFHPIKETKVEEPVDITPY [V14K] | 1.53
KKREFRFHPIKETLVEEPVDITPY [V14L] | 1.82
KKREFRFHPIKETFVEEPVDITPY [V14F] | 1.71

Variant | protein stability index
KKREFRFHPIKETDVEEPVDITPY [V14D] | 2.58
KKREFRFHPIKETNVEEPVDITPY [V14N] | 1.99
SKREFRFHPIKETVVEEPVDITPY [K1S] | 1.8
NKREFRFHPIKETVVEEPVDITPY [K1N] | 1.94
MKREFRFHPIKETVVEEPVDITPY [K1M] | 1.96
YKREFRFHPIKETVVEEPVDITPY [K1Y] | 2.12
KKREFRFHPIKEFVVEEPVDITPY [T13F] | 1.54
KKREFRFHPIKEMVVEEPVDITPY [T13M] | 1.57
KKREFRFHPIKEGVVEEPVDITPY [T13G] | 2.33
KKREFRFHPIKEEVVEEPVDITPY [T13E] | 2.39
KKREFRFHPIKEKVVEEPVDITPY [T13K] | 1.96
KKREFRFHPAKETVVEEPVDITPY [I10A] | 2.08
KKREFRFHPFKETVVEEPVDITPY [I10F] | 2.69
KKREFRFHPEKETVVEEPVDITPY [I10E] | 2.4
KKREFRFHPVKETVVEEPVDITPY [I10V] | 1.98
KKREFRFHPSKETVVEEPVDITPY [I10S] | 1.64
KKREFRFHAIKETVVEEPVDITPY [P9A] | 2.5
KKREFRFHRIKETVVEEPVDITPY [P9R] | 2.3
KKREFRFHGIKETVVEEPVDITPY [P9G] | 2.5
KKREFRFHIIKETVVEEPVDITPY [P9I] | 2.18
KKREFRFHEIKETVVEEPVDITPY [P9E] | 3.18
KKREFRFHLIKETVVEEPVDITPY [P9L] | 1.9
KKREFRFHPIKETVVEGPVDITPY [E17G] | 2.26
KKREFRFHPIKETVVEQPVDITPY [E17Q] | 2.42

Variant | protein stability index
KKREFRFHPIKETVVETPVDITPY [E17T] | 2.13
KKREFRFHPIKETVVESPVDITPY [E17S] | 2.24
KKRTFRFHPIKETVVEEPVDITPY [E4T] | 2.07
KKRCFRFHPIKETVVEEPVDITPY [E4C] | 3.03
KKRQFRFHPIKETVVEEPVDITPY [E4Q] | 2.36
KKRDFRFHPIKETVVEEPVDITPY [E4D] | 2.06
KKRAFRFHPIKETVVEEPVDITPY [E4A] | 2.29
KKRETRFHPIKETVVEEPVDITPY [F5T] | 4.52
KKREWRFHPIKETVVEEPVDITPY [F5W] | 2.56
KKREIRFHPIKETVVEEPVDITPY [F5I] | 4.06
KKREFRFHPIKETVVEEPVDIGPY [T22G] | 2.03
KKREFRFHPIKETVVEEPVDIYPY [T22Y] | 2.26
KKREFRFHPIKETVVEEPVDIPPY [T22P] | 1.86
KKREFRFHPIKETVVEEPVDIAPY [T22A] | 1.45
KKREFRFHPIKETVVEEPVDIWPY [T22W] | 1.3
KKREFRFHPIKETVVEEPVDIIPY [T22I] | 1.96
KKREFRFHPIKQTVVEEPVDITPY [E12Q] | 2.48
KKREFRFHPIKNTVVEEPVDITPY [E12N] | 1.86
KKREFRFHPIKWTVVEEPVDITPY [E12W] | 2.98
KKREFRFHPIFETVVEEPVDITPY [K11F] | 2.56
KKREFRFHPISETVVEEPVDITPY [K11S] | 2.31
KKREFRFHPITETVVEEPVDITPY [K11T] | 1.97
KKREFRFHPIDETVVEEPVDITPY [K11D] | 2.72
KKREFRFHPIHETVVEEPVDITPY [K11H] | 2.04

Variant | protein stability index
KCREFRFHPIKETVVEEPVDITPY [K2C] | 1.9
KNREFRFHPIKETVVEEPVDITPY [K2N] | 1.82
KAREFRFHPIKETVVEEPVDITPY [K2A] | 1.56
KIREFRFHPIKETVVEEPVDITPY [K2I] | 2.55
KTREFRFHPIKETVVEEPVDITPY [K2T] | 2.14
KMREFRFHPIKETVVEEPVDITPY [K2M] | 2.2
KSREFRFHPIKETVVEEPVDITPY [K2S] | 2.38
KYREFRFHPIKETVVEEPVDITPY [K2Y] | 1.6
KKREFRFHPIKETVVQEPVDITPY [E16Q] | 1.86
KKREFRFHPIKETVVDEPVDITPY [E16D] | 2.18
KKREFRFHPIKETVVHEPVDITPY [E16H] | 1.83
KKREFRFHPIKETVVTEPVDITPY [E16T] | 2.16
KKREFRFHPIKETVVNEPVDITPY [E16N] | 2.39
KKREFRFHPIKETVVCEPVDITPY [E16C] | 2.46
KKREFRFHPIKETVVEEPVDQTPY [I21Q] | 2.43
KKREFRFHPIKETVVEEPVDITPF [Y24F] | 2.18
KKREFRFHPIKETVVEEPVDITPC [Y24C] | 2.16
KKREFRFHPIKETVVEEPVDITPG [Y24G] | 2.44
KKREFRFHPIKETVVEEPVDITPL [Y24L] | 2.17
KKREFRFHPIKETVVEEPVDITPR [Y24R] | 1.47
KKREFRFHPIKETVVEEPVDITPE [Y24E] | 2.38
KKREFRFHPIKETVVEEPVDITPV [Y24V] | 2.26
